Source: patent US20180009871A1 (INTARCIA THERAPEUTICS, published 2018)
Where no end group is shown, it is not given here. [ ]: non-standard residue; d: D form. Aib = CC(C)(N)C(=O)O

Legend:
Experiment in all cases: cell-based or functional assay
[1] = molecular target: T1, human glucagon receptor (GCGR) (human, UniProt P47871 26-477)
[2] = molecular target: T2, human GLP-1 receptor (GLP-1R) (human, UniProt P43220 24-463)
T2 sequence (P43220 24-463): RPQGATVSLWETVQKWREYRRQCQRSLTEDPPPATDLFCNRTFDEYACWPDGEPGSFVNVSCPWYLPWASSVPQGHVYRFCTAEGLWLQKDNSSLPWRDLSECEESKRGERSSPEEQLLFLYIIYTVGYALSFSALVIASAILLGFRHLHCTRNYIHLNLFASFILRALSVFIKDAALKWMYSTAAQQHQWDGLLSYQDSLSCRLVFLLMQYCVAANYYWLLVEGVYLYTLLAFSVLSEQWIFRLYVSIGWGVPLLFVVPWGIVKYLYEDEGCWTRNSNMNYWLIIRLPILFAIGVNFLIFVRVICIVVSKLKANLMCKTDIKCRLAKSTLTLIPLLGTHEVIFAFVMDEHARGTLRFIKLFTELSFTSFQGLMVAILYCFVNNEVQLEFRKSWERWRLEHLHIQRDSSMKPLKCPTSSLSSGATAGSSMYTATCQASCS

[3] = molecular target: T1, human glucagon receptor (GCGR); remark: listed apart in the source
[4] = molecular target: T2, human GLP-1 receptor (GLP-1R); remark: listed apart in the source
[5] = molecular target: human glucagon receptor (GCGR) (human, UniProt P47871 26-477); remark: listed apart in the source
[6] = molecular target: human GLP-1 receptor (GLP-1R) (human, UniProt P43220 24-463); remark: listed apart in the source
Target sequence in this assay (P43220 24-463): as above

B1: Compound A6 (peptide)
peptide: WSQGTFTSDYSKYLD[Aib]KRAQEFV[Aib]WLEDEPSSGAPPPS-OH
modifications: N-terminus assumed
SMILES: CC(C)C[C@H](NC(=O)[C@H](Cc1ccc(O)cc1)NC(=O)[C@H](CCCCN)NC(=O)[C@H](CO)NC(=O)[C@H](Cc1ccc(O)cc1)NC(=O)[C@H](CC(=O)O)NC(=O)[C@H](CO)NC(=O)[C@@H](NC(=O)[C@H](Cc1ccccc1)NC(=O)[C@@H](NC(=O)CNC(=O)[C@H](CCC(N)=O)NC(=O)[C@H](CO)NC(=O)[C@@H](N)Cc1c[nH]c2ccccc12)[C@@H](C)O)[C@@H](C)O)C(=O)N[C@@H](CC(=O)O)C(=O)NC(C)(C)C(=O)N[C@@H](CCCCN)C(=O)N[C@@H](CCCNC(=N)N)C(=O)N[C@@H](C)C(=O)N[C@@H](CCC(N)=O)C(=O)N[C@@H](CCC(=O)O)C(=O)N[C@@H](Cc1ccccc1)C(=O)N[C@H](C(=O)NC(C)(C)C(=O)N[C@@H](Cc1c[nH]c2ccccc12)C(=O)N[C@@H](CC(C)C)C(=O)N[C@@H](CCC(=O)O)C(=O)N[C@@H](CC(=O)O)C(=O)N[C@@H](CCC(=O)O)C(=O)N1CCC[C@H]1C(=O)N[C@@H](CO)C(=O)N[C@@H](CO)C(=O)NCC(=O)N[C@@H](C)C(=O)N1CCC[C@H]1C(=O)N1CCC[C@H]1C(=O)N1CCC[C@H]1C(=O)N[C@@H](CO)C(=O)O)C(C)C
[1]
  hGCGR pEC50 (cAMP) mean (n = 9): 11 point curve starting at 1 uM: 11.7 pEC50
[2]
  hGLP1 pEC50 (cAMP) mean (n = 9): 11 point curve starting at 500 uM: 5.3 pEC50

B2: Compound A97 (peptide)
peptide: YSHGTFTSDYSKYLDAARAQEFVKWLEDEPSSGAPPPS-OH
[3]
  hGCGR pEC50 (cAMP) mean (n = 3): 11 point curve starting at 1 nM: 12.3 pEC50
[4]
  hGLP1 pEC50 (cAMP) mean (n = 3): 11 point curve starting at 1 nM: < 9 pEC50

B3: Compound A96 (peptide)
peptide: YSQGTFTSDYSKYLD[Aib]KAAQEFV[Aib]WLEDEPSSGKPPPS
[5]
  hGCGR pEC50 (cAMP): 13 pEC50
[6]
  hGLP1 pEC50 (cAMP): < 9 pEC50

B4: Compound A100 (peptide)
peptide: YSHGTFTSDYSKYLD[Aib]KRAQEFV[Aib]WLEDE-OH
modifications: N-terminus assumed
SMILES: CC(C)C[C@H](NC(=O)[C@H](Cc1ccc(O)cc1)NC(=O)[C@H](CCCCN)NC(=O)[C@H](CO)NC(=O)[C@H](Cc1ccc(O)cc1)NC(=O)[C@H](CC(=O)O)NC(=O)[C@H](CO)NC(=O)[C@@H](NC(=O)[C@H](Cc1ccccc1)NC(=O)[C@@H](NC(=O)CNC(=O)[C@H](Cc1c[nH]cn1)NC(=O)[C@H](CO)NC(=O)[C@@H](N)Cc1ccc(O)cc1)[C@@H](C)O)[C@@H](C)O)C(=O)N[C@@H](CC(=O)O)C(=O)NC(C)(C)C(=O)N[C@@H](CCCCN)C(=O)N[C@@H](CCCNC(=N)N)C(=O)N[C@@H](C)C(=O)N[C@@H](CCC(N)=O)C(=O)N[C@@H](CCC(=O)O)C(=O)N[C@@H](Cc1ccccc1)C(=O)N[C@H](C(=O)NC(C)(C)C(=O)N[C@@H](Cc1c[nH]c2ccccc12)C(=O)N[C@@H](CC(C)C)C(=O)N[C@@H](CCC(=O)O)C(=O)N[C@@H](CC(=O)O)C(=O)N[C@@H](CCC(=O)O)C(=O)O)C(C)C
[3]
  hGCGR pEC50 (cAMP) mean (n = 3): 11 point curve starting at 1 nM: 12.6 pEC50
[4]
  hGLP1 pEC50 (cAMP) mean (n = 3): 11 point curve starting at 1 nM: < 9 pEC50

B5: Compound A101 (peptide)
peptide: YGHGTFTSDHSKYLD[Aib]KRAQEFVKWLEDE-OH
modifications: N-terminus assumed
SMILES: CC(C)C[C@H](NC(=O)[C@H](Cc1c[nH]c2ccccc12)NC(=O)[C@H](CCCCN)NC(=O)[C@@H](NC(=O)[C@H](Cc1ccccc1)NC(=O)[C@H](CCC(=O)O)NC(=O)[C@H](CCC(N)=O)NC(=O)[C@H](C)NC(=O)[C@H](CCCNC(=N)N)NC(=O)[C@H](CCCCN)NC(=O)C(C)(C)NC(=O)[C@H](CC(=O)O)NC(=O)[C@H](CC(C)C)NC(=O)[C@H](Cc1ccc(O)cc1)NC(=O)[C@H](CCCCN)NC(=O)[C@H](CO)NC(=O)[C@H](Cc1c[nH]cn1)NC(=O)[C@H](CC(=O)O)NC(=O)[C@H](CO)NC(=O)[C@@H](NC(=O)[C@H](Cc1ccccc1)NC(=O)[C@@H](NC(=O)CNC(=O)[C@H](Cc1c[nH]cn1)NC(=O)CNC(=O)[C@@H](N)Cc1ccc(O)cc1)[C@@H](C)O)[C@@H](C)O)C(C)C)C(=O)N[C@@H](CCC(=O)O)C(=O)N[C@@H](CC(=O)O)C(=O)N[C@@H](CCC(=O)O)C(=O)O
[3]
  hGCGR pEC50 (cAMP) mean (n = 3): 11 point curve starting at 1 nM: 11.3 pEC50
[4]
  hGLP1 pEC50 (cAMP) mean (n = 3): 11 point curve starting at 1 nM: < 9 pEC50

B6: Compound A95 (peptide)
peptide: YSQGTFTSDYSKYLD[Aib]KAAQEFV[Aib]WLEDEPSSGAPPPS
[5]
  hGCGR pEC50 (cAMP): 13.3 pEC50
[6]
  hGLP1 pEC50 (cAMP): < 9 pEC50

B7: Compound A99 (peptide)
peptide: YSHGTFTSDYSKYLD[Aib]KRAQEFV[Aib]WLEDEPSSGAPPPS-OH
modifications: N-terminus assumed
SMILES: CC(C)C[C@H](NC(=O)[C@H](Cc1ccc(O)cc1)NC(=O)[C@H](CCCCN)NC(=O)[C@H](CO)NC(=O)[C@H](Cc1ccc(O)cc1)NC(=O)[C@H](CC(=O)O)NC(=O)[C@H](CO)NC(=O)[C@@H](NC(=O)[C@H](Cc1ccccc1)NC(=O)[C@@H](NC(=O)CNC(=O)[C@H](Cc1c[nH]cn1)NC(=O)[C@H](CO)NC(=O)[C@@H](N)Cc1ccc(O)cc1)[C@@H](C)O)[C@@H](C)O)C(=O)N[C@@H](CC(=O)O)C(=O)NC(C)(C)C(=O)N[C@@H](CCCCN)C(=O)N[C@@H](CCCNC(=N)N)C(=O)N[C@@H](C)C(=O)N[C@@H](CCC(N)=O)C(=O)N[C@@H](CCC(=O)O)C(=O)N[C@@H](Cc1ccccc1)C(=O)N[C@H](C(=O)NC(C)(C)C(=O)N[C@@H](Cc1c[nH]c2ccccc12)C(=O)N[C@@H](CC(C)C)C(=O)N[C@@H](CCC(=O)O)C(=O)N[C@@H](CC(=O)O)C(=O)N[C@@H](CCC(=O)O)C(=O)N1CCC[C@H]1C(=O)N[C@@H](CO)C(=O)N[C@@H](CO)C(=O)NCC(=O)N[C@@H](C)C(=O)N1CCC[C@H]1C(=O)N1CCC[C@H]1C(=O)N1CCC[C@H]1C(=O)N[C@@H](CO)C(=O)O)C(C)C
[3]
  hGCGR pEC50 (cAMP) mean (n = 3): 11 point curve starting at 1 nM: 12.5 pEC50
[4]
  hGLP1 pEC50 (cAMP) mean (n = 3): 11 point curve starting at 1 nM: < 9 pEC50

B8: Compound A102 (peptide)
peptide: YSHGTFTSDYSKWLD[Aib]KRAQEFVKWLEDE-OH
modifications: N-terminus assumed
SMILES: CC(C)C[C@H](NC(=O)[C@H](Cc1c[nH]c2ccccc12)NC(=O)[C@H](CCCCN)NC(=O)[C@@H](NC(=O)[C@H](Cc1ccccc1)NC(=O)[C@H](CCC(=O)O)NC(=O)[C@H](CCC(N)=O)NC(=O)[C@H](C)NC(=O)[C@H](CCCNC(=N)N)NC(=O)[C@H](CCCCN)NC(=O)C(C)(C)NC(=O)[C@H](CC(=O)O)NC(=O)[C@H](CC(C)C)NC(=O)[C@H](Cc1c[nH]c2ccccc12)NC(=O)[C@H](CCCCN)NC(=O)[C@H](CO)NC(=O)[C@H](Cc1ccc(O)cc1)NC(=O)[C@H](CC(=O)O)NC(=O)[C@H](CO)NC(=O)[C@@H](NC(=O)[C@H](Cc1ccccc1)NC(=O)[C@@H](NC(=O)CNC(=O)[C@H](Cc1c[nH]cn1)NC(=O)[C@H](CO)NC(=O)[C@@H](N)Cc1ccc(O)cc1)[C@@H](C)O)[C@@H](C)O)C(C)C)C(=O)N[C@@H](CCC(=O)O)C(=O)N[C@@H](CC(=O)O)C(=O)N[C@@H](CCC(=O)O)C(=O)O
[3]
  hGCGR pEC50 (cAMP) mean (n = 3): 11 point curve starting at 1 nM: 12.4 pEC50
[4]
  hGLP1 pEC50 (cAMP) mean (n = 3): 11 point curve starting at 1 nM: < 9 pEC50

B9: Compound A94 (peptide)
peptide: YSQGTFTSDYSKYLD[Aib]KRAQEFV[Aib]WLEDEPSSGAPPPS
[5]
  hGCGR pEC50 (cAMP): 14.1 pEC50
[6]
  hGLP1 pEC50 (cAMP): < 9 pEC50

B10: Compound A98 (peptide)
peptide: YSHGTFTSDYTRLLESKRAQEFVKWLEDEPSSGAPPPS-OH
[3]
  hGCGR pEC50 (cAMP) mean (n = 3): 11 point curve starting at 1 nM: 12.2 pEC50
[4]
  hGLP1 pEC50 (cAMP) mean (n = 3): 11 point curve starting at 1 nM: < 9 pEC50

B11: Compound A103 (peptide)
peptide: YSHGTFTSDYSKYLD[Aib]ARAQEFV[Aib]WLEDEPSSGAPPPS-OH
modifications: N-terminus assumed
SMILES: CC(C)C[C@H](NC(=O)[C@H](Cc1ccc(O)cc1)NC(=O)[C@H](CCCCN)NC(=O)[C@H](CO)NC(=O)[C@H](Cc1ccc(O)cc1)NC(=O)[C@H](CC(=O)O)NC(=O)[C@H](CO)NC(=O)[C@@H](NC(=O)[C@H](Cc1ccccc1)NC(=O)[C@@H](NC(=O)CNC(=O)[C@H](Cc1c[nH]cn1)NC(=O)[C@H](CO)NC(=O)[C@@H](N)Cc1ccc(O)cc1)[C@@H](C)O)[C@@H](C)O)C(=O)N[C@@H](CC(=O)O)C(=O)NC(C)(C)C(=O)N[C@@H](C)C(=O)N[C@@H](CCCNC(=N)N)C(=O)N[C@@H](C)C(=O)N[C@@H](CCC(N)=O)C(=O)N[C@@H](CCC(=O)O)C(=O)N[C@@H](Cc1ccccc1)C(=O)N[C@H](C(=O)NC(C)(C)C(=O)N[C@@H](Cc1c[nH]c2ccccc12)C(=O)N[C@@H](CC(C)C)C(=O)N[C@@H](CCC(=O)O)C(=O)N[C@@H](CC(=O)O)C(=O)N[C@@H](CCC(=O)O)C(=O)N1CCC[C@H]1C(=O)N[C@@H](CO)C(=O)N[C@@H](CO)C(=O)NCC(=O)N[C@@H](C)C(=O)N1CCC[C@H]1C(=O)N1CCC[C@H]1C(=O)N1CCC[C@H]1C(=O)N[C@@H](CO)C(=O)O)C(C)C
[3]
  hGCGR pEC50 (cAMP) mean (n = 3): 11 point curve starting at 1 nM: 11.9 pEC50
[4]
  hGLP1 pEC50 (cAMP) mean (n = 3): 11 point curve starting at 1 nM: < 9 pEC50
